B1: Guanylyl cyclase-activating protein 1, P43080 (parent)
chain: MGNVMEGKSVEELSSTECHQWYKKFMTECPSGQLTLYEFRQFFGLKNLSPSASQYVEQMFETFDFNKDGYIDFMEYVAALSLVLKGKVEQKLRWYFKLYDVDGNGCIDRDELLTIIQAIRAINPCSDTTMTAEEFTDTVFSKIDVNGDGELSLEEFIEGVQKDQMLLDTLTRSLDLTRIVRRLQNGEQDEEGADEAAEAAG

Variants of: B1
Conditions: Homo sapiens; pH 7.5; Thermal; CD; Tris-HCl; KCl; transition: 2; whole UniProt chain shown

| Variant | change of melting temperature, mutant - wild type (higher = more stable) |
| --- | --- |
| MGNVMEGKSVEELSSTECHQWYKKFMTECPSGQLTLYEFRQFFGLKNLSPSASQYVEQMFETFDFNKDGYIDFMEYVAALSLVLKGKVEQKLRWYFKLYDVDGNGCTDRDELLTIIQAIRAINPCSDTTMTAEEFTDTVFSKIDVNGDGELSLEEFIEGVQKDQMLLDTLTRSLDLTRIVRRLQNGEQDEEGADEAAEAAG [I107T] | -8.1 °C |
| MGNVMEGKSVEELSSTECHQWYKKFMTECPSGQLTLYEFRQFFGLKNLSPSASQYVEQMFETFDFNKDGYIDFMEYVAALSLVFKGKVEQKLRWYFKLYDVDGNGCIDRDELLTIIQAIRAINPCSDTTMTAEEFTDTVFSKIDVNGDGELSLEEFIEGVQKDQMLLDTLTRSLDLTRIVRRLQNGEQDEEGADEAAEAAG [L84F] | -9.3 °C |

Same assay, conditions: Homo sapiens; pH 7.5; Thermal; CD; Tris-HCl; KCl; transition: 3; whole UniProt chain shown

| Variant | change of melting temperature, mutant - wild type (higher = more stable) |
| --- | --- |
| MGNVMEGKSVEELSSTECHQWYKKFMTECPSGQLTLYEFRQFFGLKNLSPSASQYVEQMFETFDFNKDGYIDFMEYVAALSLVLKGKVEQKLRWYFKLYDVDGNGCTDRDELLTIIQAIRAINPCSDTTMTAEEFTDTVFSKIDVNGDGELSLEEFIEGVQKDQMLLDTLTRSLDLTRIVRRLQNGEQDEEGADEAAEAAG [I107T] | -8.1 °C |
